The results in this text go back to patent US20260217779A1 (Chugai, published 2026).

Positions count from the first letter of the chain named. Numbers in names are those of the source.

First the molecules themselves.
T1: human CXCR3 (hCXCR3) on Ba/F3 transfectant cells (human, UniProt P49682 1-368)
T1 sequence: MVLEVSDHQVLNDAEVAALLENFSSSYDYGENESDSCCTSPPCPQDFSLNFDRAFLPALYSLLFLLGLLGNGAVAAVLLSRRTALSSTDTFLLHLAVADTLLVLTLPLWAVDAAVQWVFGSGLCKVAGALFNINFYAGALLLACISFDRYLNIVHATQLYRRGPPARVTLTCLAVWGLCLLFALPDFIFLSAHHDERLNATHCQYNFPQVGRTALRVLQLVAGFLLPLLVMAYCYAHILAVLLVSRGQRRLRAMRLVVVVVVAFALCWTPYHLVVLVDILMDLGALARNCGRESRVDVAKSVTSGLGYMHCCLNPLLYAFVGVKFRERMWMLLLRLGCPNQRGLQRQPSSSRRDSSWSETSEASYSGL

B1: hCXCL11.0038-G1T4k.one//VHn-G1T4h.one.H435R (Fc fusion)
chain 1: WFPMFKRGRCLCIGPGVKAVKVADIEKASIMYPSNNCDKIEVIITLKENKGQRCLNPKSKQARLIIKKVERKNFEPKSSDKTHTCPPCPAPELRRGPSVFLFPPKPKDTLMISRTPEVTCVVVDVSHEDPEVKFNWYVDGVEVHNAKTKPREEQYNSTYRVVSVLTVLHQDWLNGKEYKCKVSNKGLPSSIEKTISKAKGQPREPQVCTLPPSREEMTKNQVSLWCLVKGFYPSDIAVEWESNGQPENNYKTTPPVLDSDGSFFLYSKLTVDKSRWQEGNVFSCSVMHEALHNHYTQKSLSLSP
chain 2: EPKSSDKTHTCPPCPAPELRRGPSVFLFPPKPKDTLMISRTPEVTCVVVDVSHEDPEVKFNWYVDGVEVHNAKTKPREEQYNSTYRVVSVLTVLHQDWLNGKEYKCKVSNKGLPSSIEKTISKAKGQPREPQVYTLPPSRCEMTKNQVSLSCAVKGFYPSDIAVEWESNGQPENNYKTTPPVLDSDGSFFLVSKLTVDKSRWQEGNVFSCSVMHEALHNRYTQKSLSLSP
B2: hCXCL11.0051-G1T4k.one//VHn-G1T4h.one.H435R (Fc fusion)
chain 1: B1 chain 1 with W1F, F2P
chain 2: B1 chain 2
B3: hCXCL11.0048-G1T4k.one//VHn-G1T4h.one.H435R (Fc fusion)
chain 1: B1 chain 1 with W1F, F2L
chain 2: B1 chain 2
B4: hCXCL11.0055-G1T4k.one//VHn-G1T4h.one.H435R (Fc fusion)
chain 1: B1 chain 1 with W1F, F2T
chain 2: B1 chain 2
B5: hCXCL11.0049-G1T4k.one//VHn-G1T4h.one.H435R (Fc fusion)
chain 1: B1 chain 1 with W1F, F2M
chain 2: B1 chain 2
B6: hCXCL11.0046-G1T4k.one//VHn-G1T4h.one.H435R (Fc fusion)
chain 1: B1 chain 1 with W1F, F2I
chain 2: B1 chain 2
B7: hCXCL11.0042-G1T4k.one//VHn-G1T4h.one.H435R (Fc fusion)
chain 1: B1 chain 1 with W1F, F2E
chain 2: B1 chain 2
B8: hCXCL11.0040-G1T4k.one//VHn-G1T4h.one.H435R (Fc fusion)
chain 1: B1 chain 1 with W1F, F2A
chain 2: B1 chain 2
B9: hCXCL11.0056-G1T4k.one//VHn-G1T4h.one.H435R (Fc fusion)
chain 1: B1 chain 1 with W1F, F2V
chain 2: B1 chain 2
B10: hCXCL11.0047-G1T4k.one//VHn-G1T4h.one.H435R (Fc fusion)
chain 1: B1 chain 1 with W1F, F2K
chain 2: B1 chain 2
B11: hCXCL11.0041-G1T4k.one//VHn-G1T4h.one.H435R (Fc fusion)
chain 1: B1 chain 1 with W1F, F2D
chain 2: B1 chain 2
B12: hCXCL11.0050-G1T4k.one//VHn-G1T4h.one.H435R (Fc fusion)
chain 1: B1 chain 1 with W1F, F2N
chain 2: B1 chain 2
B13: hCXCL11.0044-G1T4k.one//VHn-G1T4h.one.H435R (Fc fusion)
chain 1: B1 chain 1 with W1F, F2G
chain 2: B1 chain 2
B14: hCXCL11.0054-G1T4k.one//VHn-G1T4h.one.H435R (Fc fusion)
chain 1: B1 chain 1 with W1F, F2S
chain 2: B1 chain 2
B15: hCXCL11.0053-G1T4k.one//VHn-G1T4h.one.H435R (Fc fusion)
chain 1: B1 chain 1 with W1F, F2R
chain 2: B1 chain 2
B16: hCXCL11.0039-G1T4k.one//VHn-G1T4h.one.H435R (Fc fusion)
chain 1: B1 chain 1 with W1Y
chain 2: B1 chain 2
B17: hCXCL11.0045-G1T4k.one//VHn-G1T4h.one.H435R (Fc fusion)
chain 1: B1 chain 1 with W1F, F2H
chain 2: B1 chain 2
B18: hCXCL11.0057-G1T4k.one//VHn-G1T4h.one.H435R (Fc fusion)
chain 1: B1 chain 1 with W1F, F2W
chain 2: B1 chain 2
B19: hCXCL11.0052-G1T4k.one//VHn-G1T4h.one.H435R (Fc fusion)
chain 1: B1 chain 1 with W1F, F2Q
chain 2: B1 chain 2

The assay concerns the target T1, human CXCR3 (hCXCR3) on Ba/F3 …. The assay is described as follows: cell-based or functional assay.
As to B1, the “Activity retention rate at 33 nM” value stood at 60%, the “Activity retention rate at 100 nM” value came to 83%, the “Activity retention rate at 300 nM” value was 99% and the “Luminescence value at 33 nM” value is 4.63e+06. Besides, the “Luminescence value at 100 nM” value worked out at 1.39e+07 and the “Luminescence value at 300 nM” value amounted to 1.23e+07.
For the molecule B2, the “Activity retention rate at 33 nM” value was 84%, the “Activity retention rate at 100 nM” value was determined as 89%, the “Activity retention rate at 300 nM” value is 82% and the “Luminescence value at 33 nM” value is 6.46e+06. The “Luminescence value at 100 nM” value stood at 1.49e+07 and the “Luminescence value at 300 nM” value worked out at 1.02e+07.
For B3, the “Activity retention rate at 33 nM” value was 52%, the “Activity retention rate at 100 nM” value was found to be 75%, the “Activity retention rate at 300 nM” value stood at 72% and the “Luminescence value at 33 nM” value is 3.97e+06. In addition, the “Luminescence value at 100 nM” value amounted to 1.25e+07 and the “Luminescence value at 300 nM” value was determined as 8.95e+06.
Turning to B4, the “Activity retention rate at 33 nM” value stood at 39%, the “Activity retention rate at 100 nM” value was determined as 58%, the “Activity retention rate at 300 nM” value came out at 42% and the “Luminescence value at 33 nM” value is 2.98e+06. The “Luminescence value at 100 nM” value came to 9.65e+06 and the “Luminescence value at 300 nM” value was determined as 5.27e+06.
With B5, the “Activity retention rate at 33 nM” value worked out at 66%, the “Activity retention rate at 100 nM” value was 90%, the “Activity retention rate at 300 nM” value stood at 75% and the “Luminescence value at 33 nM” value amounted to 5.1e+06. For the same molecule, the “Luminescence value at 100 nM” value amounted to 1.5e+07 and the “Luminescence value at 300 nM” value was determined as 9.32e+06.
As to B6, the “Activity retention rate at 33 nM” value came to 10%, the “Activity retention rate at 100 nM” value worked out at 36%, the “Activity retention rate at 300 nM” value came to 65% and the “Luminescence value at 33 nM” value was found to be 760000. The “Luminescence value at 100 nM” value was found to be 6.04e+06 and the “Luminescence value at 300 nM” value stood at 8.05e+06.
Take B7: the “Activity retention rate at 33 nM” value came to 61%, the “Activity retention rate at 100 nM” value was found to be 67%, the “Activity retention rate at 300 nM” value was 58% and the “Luminescence value at 33 nM” value was 4.7e+06. Moreover, the “Luminescence value at 100 nM” value amounted to 1.12e+07 and the “Luminescence value at 300 nM” value is 7.23e+06.
Turning to B8, the “Activity retention rate at 33 nM” value stood at 81%, the “Activity retention rate at 100 nM” value was found to be 78%, the “Activity retention rate at 300 nM” value came out at 41% and the “Luminescence value at 33 nM” value turned out to be 6.26e+06. Besides, the “Luminescence value at 100 nM” value turned out to be 1.31e+07 and the “Luminescence value at 300 nM” value amounted to 5.05e+06.
For B9, the “Activity retention rate at 33 nM” value came out at 8%, the “Activity retention rate at 100 nM” value is 33%, the “Activity retention rate at 300 nM” value worked out at 59% and the “Luminescence value at 33 nM” value was 643000. Moreover, the “Luminescence value at 100 nM” value worked out at 5.57e+06 and the “Luminescence value at 300 nM” value was determined as 7.33e+06.
Consider B10, for which the “Activity retention rate at 33 nM” value was 5%, the “Activity retention rate at 100 nM” value was determined as 22%, the “Activity retention rate at 300 nM” value amounted to 52% and the “Luminescence value at 33 nM” value is 391000. For the same molecule, the “Luminescence value at 100 nM” value was determined as 3.72e+06 and the “Luminescence value at 300 nM” value came out at 6.48e+06.
Consider B11, for which the “Activity retention rate at 33 nM” value came to 25%, the “Activity retention rate at 100 nM” value is 56%, the “Activity retention rate at 300 nM” value came to 42% and the “Luminescence value at 33 nM” value is 1.92e+06. The “Luminescence value at 100 nM” value was determined as 9.37e+06 and the “Luminescence value at 300 nM” value is 5.16e+06.
Take B12: the “Activity retention rate at 33 nM” value amounted to 30%, the “Activity retention rate at 100 nM” value turned out to be 51%, the “Activity retention rate at 300 nM” value came to 64% and the “Luminescence value at 33 nM” value worked out at 2.32e+06. Besides, the “Luminescence value at 100 nM” value is 8.49e+06 and the “Luminescence value at 300 nM” value was determined as 7.92e+06.
On to B13, for which the “Activity retention rate at 33 nM” value is 68%, the “Activity retention rate at 100 nM” value came to 76%, the “Activity retention rate at 300 nM” value was found to be 72% and the “Luminescence value at 33 nM” value was 5.24e+06. Further, the “Luminescence value at 100 nM” value was found to be 1.27e+07 and the “Luminescence value at 300 nM” value came to 8.9e+06.
As for B14, the “Activity retention rate at 33 nM” value was 42%, the “Activity retention rate at 100 nM” value came out at 63%, the “Activity retention rate at 300 nM” value worked out at 51% and the “Luminescence value at 33 nM” value stood at 3.24e+06. For the same molecule, the “Luminescence value at 100 nM” value amounted to 1.05e+07 and the “Luminescence value at 300 nM” value stood at 6.34e+06.
In the case of B15, the “Activity retention rate at 33 nM” value was determined as 8%, the “Activity retention rate at 100 nM” value stood at 26%, the “Activity retention rate at 300 nM” value is 60% and the “Luminescence value at 33 nM” value was determined as 595000. Besides, the “Luminescence value at 100 nM” value amounted to 4.26e+06 and the “Luminescence value at 300 nM” value turned out to be 7.43e+06.
B16: the “Activity retention rate at 33 nM” value is 102%, the “Activity retention rate at 100 nM” value turned out to be 86%, the “Activity retention rate at 300 nM” value amounted to 75% and the “Luminescence value at 33 nM” value turned out to be 7.86e+06. In addition, the “Luminescence value at 100 nM” value was determined as 1.43e+07 and the “Luminescence value at 300 nM” value worked out at 9.32e+06.
As for B17, the “Activity retention rate at 33 nM” value amounted to 61%, the “Activity retention rate at 100 nM” value amounted to 75%, the “Activity retention rate at 300 nM” value was determined as 67% and the “Luminescence value at 33 nM” value turned out to be 4.67e+06. In addition, the “Luminescence value at 100 nM” value worked out at 1.26e+07 and the “Luminescence value at 300 nM” value is 8.3e+06.
Regarding B18, the “Activity retention rate at 33 nM” value worked out at 7%, the “Activity retention rate at 100 nM” value came out at 37%, the “Activity retention rate at 300 nM” value was 86% and the “Luminescence value at 33 nM” value came out at 501000. For the same molecule, the “Luminescence value at 100 nM” value stood at 6.21e+06 and the “Luminescence value at 300 nM” value came out at 1.07e+07.
Take B19: the “Activity retention rate at 33 nM” value turned out to be 77%, the “Activity retention rate at 100 nM” value came to 90%, the “Activity retention rate at 300 nM” value stood at 67% and the “Luminescence value at 33 nM” value was 5.88e+06. The “Luminescence value at 100 nM” value is 1.51e+07 and the “Luminescence value at 300 nM” value was determined as 8.33e+06.
